Where two headings read alike, the source gives them in different places.
Tests used:
[1] = molecular target: T1, SARS-CoV-2 Spike RBD (tagless) (SARS-CoV-2, UniProt P0DTC2 319-541); assay: Octet BLI; tagless RBD as analyte over 23-H7-coated AHC sensors; 1:1 kinetic fit
[2] = molecular target: SARS-CoV-2 Spike trimer (recombinant, wild type) (SARS-CoV-2, UniProt P0DTC2 14-1213); assay: ELISA on plate-adsorbed recombinant Spike
[3] = molecular target: T1, SARS-CoV-2 Spike RBD (tagless)
N354D = assay: ELISA, heat map
K458R = assay: ELISA, heat map
V483A = assay: ELISA, heat map
W436R = assay: ELISA, heat map
Y453F = assay: ELISA, heat map
E484K = assay: ELISA, heat map
V367F = assay: ELISA, heat map
G476S = assay: ELISA, heat map
K417N = assay: ELISA, heat map
B.1.351 (S1) = assay: ELISA, heat map
A435S = assay: ELISA, heat map
N439K = assay: ELISA, heat map
N501Y = assay: ELISA, heat map
F342L = assay: ELISA, heat map

Binder | EC50 (read off the curve) [2] | Kd [3] | binding result (N354D) | binding result (K458R) | binding result (V483A) | binding result (W436R) | binding result (Y453F) | binding result (E484K) | binding result (V367F) | binding result (G476S) | binding result (K417N) | binding result (B.1.351 (S1)) | binding result (A435S) | binding result (N439K) | binding result (N501Y) | further results
23-H7 (antibody, V domains shown, also called bin 2) VH: QVQLVQSGAEVKLPGASMKVSCKASGYTFSTYYMHWVRQAPGQGPEWMGVIDPSGGTTSYAQKFHDRIAMTRDTSTSTAYLELSSLRSEDMAVYYCARGGFADAVDYWGQGTLVTVSS VL: NFMLTQPHSVSGSPGKTVTISCTRNSGSIAGNYVQWYQQRPGSAPTTVIYEDNQRPSGVPDRFSGSIDSSSNSASLTISGLKTEDEADYYCQSYDASHLHVIFGGGTKVTVL | ~2 ng/mL | 4 nM | binds | binds | binds | binds | binds | binds | binds | binds | binds | binds | binds | binds | binds | Kd [1]: 4 nM
23-H7 Fab (Fab, V domains shown) VH: QVQLVQSGAEVKLPGASMKVSCKASGYTFSTYYMHWVRQAPGQGPEWMGVIDPSGGTTSYAQKFHDRIAMTRDTSTSTAYLELSSLRSEDMAVYYCARGGFADAVDYWGQGTLVTVSS VL: NFMLTQPHSVSGSPGKTVTISCTRNSGSIAGNYVQWYQQRPGSAPTTVIYEDNQRPSGVPDRFSGSIDSSSNSASLTISGLKTEDEADYYCQSYDASHLHVIFGGGTKVTVL | – | 4.6 nM | – | – | – | – | – | – | – | – | – | – | – | – | – | –
22-F7 (antibody, V domains shown, also called bin C) VH: QVQLVESGGGVVQPGRSLRLSCAASGFSFTNYGMHWVRQAPGKGLEWVAVISYDGSIKYYEDSLKGRFTVSRDNSKKTLYLQMNSLRAEDTAVYYCTRERGTGIDYWGLGTLVTVSS VL: QSALTQPASVSGYPGQSITLSCTGTKSDIGAYNYVSWYQQHPGKAPKLMVYDVSNRPSGLSNRFSGSKSDNTASLTISGLQAEDEAHYYCSSYTTSGTVVFGGGTKVTVL | – | – | – | – | – | – | – | – | – | – | – | binds | – | – | – | –
22-E7 (antibody, V domains shown, also called bin C) VH: QVQLVESGGGVVQPGTSLRLSCAASGFTFNNYPMFWVRQAPGKGLEWLALISYDGNHKVYADSVKGRFTISRDNAKNTLYLQMHSLRAEDTALYYCASDLSGAEDSWGQGTLVTVSS VL: QSALTQPASVSGSPGQSITISCTGTSSDVGGYNYVSWYQQHPGKAPKLLIYEVSNRPSGVSNRFSGSKSGNTASLTISGLQAEDEADYYCSSYTSSSTWVFGGGTKLTVL | – | – | – | – | – | – | – | – | – | – | – | binds | – | – | – | –
22-D9 (antibody, V domains shown, also called bin 4) VH: QVQLVQSGAEVKKPGSSVNVSCKTSGGTFNTYSINWVRQAPGQGLEWMGEIIPIFDKPNYAQKFQGRVTITADESTSTAYMELTSLRSDDTAVYYCARGTGYYYGMDVWGQGTTVTVSS VL: QSVLTQPPSVSGAPRQTVTISCFGSRSNIGNYPVNWYHQVPGKAPKVVVYYDDLLPSGISDRFSGYKSGTSASLTISGLRSEDEADYYCATWDDSLNVWVFGGGTKLTVL | ~10 ng/mL | – | binds | binds | binds | binds | binds | binds | binds | binds | binds | no binding | binds | binds | binds | binding result (F342L): binds
2-A6 (antibody, V domains shown, also called bin S2) VH: QVTLRESGPALVKPTQTLTLTCTFSGFSLNTRGMSVSWIRQPPGKALEWLALIDWEDDKFYRTSLMTRLTISKDIFKNQVVLTMTNVDPVDTGTYYCARTYSVGVKYFGMDVWGQGTTVTVSS VL: SSELTQDPAVSVALGQTVRITCQGDSLRNYYASWYRQEPGQAPILLIYGGNYRPSGIPDRFSGSSSGNTASLTITGAQAEDEADYYCNSRDSSGNHVVFGGGTKLTVL | – | – | – | – | – | – | – | – | – | – | – | no binding | – | – | – | –
